We go through four variants from FireProtDB (doi:10.1016/j.jmb.2003.08.024).

B1: Ribonuclease, P00648 (parent)
chain: MMKMEGIALKKRLSWISVCLLVLVSAAGMLFSTAAKTETSSHKAHTEAQVINTFDGVADYLQTYHKLPDNYITKSEAQALGWVASKGNLADVAPGKSIGGDIFSNREGKLPGKSGRTWREADINYTSGFRNSDRILYSSDWLIYKTTDHYQTFTKIR

In the data set the parent is B1. Conditions: Bacillus amyloliquefaciens, GdnHCl, Hydrogen exchange, HCl 27.5 mM, reversible: yes, structure 1BNI, whole UniProt chain shown.

Take MMKMEGIALKKRLSWISVCLLVLVSAAGMLFSTAAKTETSSHKAHTEAQVINTFDGVADYLQTYHKLPDNYITKSEAQALGWVASKGNLADVAPGKSIGGDIFSNREGKLPGKSGRTWREADINYTSGFRNCDRILYSSDWLIYKTTDCYQTFTKIR [S132C H149C]: the “ddG of mutation (higher = less stable)” value (pH 7.5, 25 °C, Imidazole 50 mM) is -4.3 kcal/mol; the “ddG of mutation (higher = less stable)” value (pH 7.6, 37 °C, Imidazole 50 mM) is -4.6 kcal/mol; the “ddG of mutation (higher = less stable)” value (pH 7.9, 37 °C, Tris 50 mM) is -4.5 kcal/mol. Further, the denaturant m value (pH 7.5, 25 °C, Imidazole 50 mM) came to 4.91 kcal/mol/M; the denaturant m value (pH 7.6, 37 °C, Imidazole 50 mM) was 4.91 kcal/mol/M; the denaturant m value (pH 7.9, 37 °C, Tris 50 mM) was 4.91 kcal/mol/M.
As to MMKMEGIALKKRLSWISVCLLVLVSAAGMLFSTAAKTETSSHKAHTEAQVINTFDGVADYLQTYHKLPDNYITKSEAQALGWVASKGNLCDVAPGKSIGGDIFSNREGKLPGKSGRTWREADINYTCGFRNSDRILYSSDWLIYKTTDHYQTFTKIR [A90C S127C], the “ddG of mutation (higher = less stable)” value is, setting by setting: (pH 7.5, 25 °C, Imidazole 50 mM) -1.9 kcal/mol; (pH 7.6, 37 °C, Imidazole 50 mM) -1.9 kcal/mol; (pH 7.9, 37 °C, Tris 50 mM) -1.8 kcal/mol. In addition, the denaturant m value was 4.91 kcal/mol/M (pH 7.5, 25 °C, Imidazole 50 mM); 4.91 kcal/mol/M (pH 7.6, 37 °C, Imidazole 50 mM); 4.91 kcal/mol/M (pH 7.9, 37 °C, Tris 50 mM).
On to MMKMEGIALKKRLSWISVCLLVLVSAAGMLFSTAAKTETSSHKAHTEAQVINTFDGVADYLQTYHKLPDNYITKSEAQALGWVASKGNLADVAPGKSIGGDIFSAREGKLPGKSGRTWREADINYTSGFRNSDRILYSSDWLIYKTTDHYQTFTKIR [N105A], for which, where the note is “pH 6.8, 30 °C, Imidazole 50 mM”, the “ddG of mutation (higher = less stable)” value came out at 1.8 kcal/mol and the denaturant m value came out at 4.91 kcal/mol/M.
In the same order, the values of MMKMEGIALKKRLSWISVCLLVLVSAAGMLFSTAAKTETSSHKAHTEAQVINTFDGVADYLQTYHKLPDNYITKSEAQALGWVASKGNLADVAPGKSIGGDIFSNREGKLPGKSGRTWREADINYTSGFRNSDRILYASDWLIYKTTDHYQTFTKIR [S138A] are 1.8 kcal/mol and 4.91 kcal/mol/M.
